Series [1] deals with the molecule itself. Kind of series: SDS-PAGE under non-reducing conditions; 2 µg purified fusion protein, 8% SDS-PAGE with and without 2-ME, Coomassie staining; disulfide-linked dimer.
The target of series [2] is T1, mouse TNFR2-Fc (mouse, UniProt P25119 23-258).
T1 construct: mouse TNF receptor 2 (TNFR2) as an Fc fusion protein; neither the source of the protein nor the kind of Fc is told; Also used here as the TNFR2 of the functional rows (BV-2 cells, T cells, sTNFR2); also called mTNFR2-Fc
T1 sequence (looked up): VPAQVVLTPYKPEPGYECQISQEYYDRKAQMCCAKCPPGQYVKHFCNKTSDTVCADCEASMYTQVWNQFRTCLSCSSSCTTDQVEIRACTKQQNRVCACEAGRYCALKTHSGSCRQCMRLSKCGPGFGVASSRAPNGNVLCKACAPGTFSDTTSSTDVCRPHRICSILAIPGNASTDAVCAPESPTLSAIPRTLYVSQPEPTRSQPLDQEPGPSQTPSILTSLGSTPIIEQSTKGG
As to the kind of experiment: ELISA; mouse TNFR1-Fc or TNFR2-Fc coated at 1 µg/ml in PBS; fusion proteins in 2% skim milk powder in PBS, 1 h at RT; detected with anti-TNF (HP8001) or anti-his-tag antibody and HRP-conjugated secondary antibody. Conditions: both partners purified.

Series [3] addresses T1, mouse TNFR2-Fc. Kind of series: quartz crystal microbalance; TNFR2-Fc chemically immobilised on a carboxyl sensor chip at high density (270 Hz); PBST (PBS, 0.1% Tween 20) pH 7.4, 37°C; analytes 2 to 32 nM; Kd = koff/kon assuming 1:1 binding. Conditions: both partners purified.
A further series addresses T2, mouse TNFR1-Fc (mouse, UniProt P25118 30-212).
T2 construct: mouse TNF receptor 1 (TNFR1) as an Fc fusion protein; neither the source of the protein nor the kind of Fc is told; Also used here as the TNFR1 of the L929 functional rows; also called mTNFR1-Fc
T2 sequence (looked up): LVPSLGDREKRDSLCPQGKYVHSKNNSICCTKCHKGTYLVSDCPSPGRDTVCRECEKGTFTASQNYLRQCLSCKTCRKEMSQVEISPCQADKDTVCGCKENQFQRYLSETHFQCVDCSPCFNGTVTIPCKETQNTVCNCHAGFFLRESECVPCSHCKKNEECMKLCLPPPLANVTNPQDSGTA
As to the kind of experiment: ELISA; mouse TNFR1-Fc or TNFR2-Fc coated at 1 µg/ml in PBS; fusion proteins in 2% skim milk powder in PBS, 1 h at RT; detected with anti-TNF (HP8001) or anti-his-tag antibody and HRP-conjugated secondary antibody. As to conditions: both partners purified.

B1: IL2-EHD2-sc-mTNFR2 (ligand)
chain: APTSSSTSSSTAEAQQQQQQQQQQQQHLEQLLMDLQELLSRMENYRNLKLPRMLTFKFYLPKQATELKDLQCLEDELGPLRHVLDLTQSKSFQLEDAENFISNIRVTVVKLKGSDNTFECQFDDESATVVDFLRRWIAFCQSIISTSPQPTVKILQSSCDGGGHFPPTIQLLCLVSGYTPGTINITWLEDGQVMDVDLSTASTTQEGELASTQSELTLSQKHWLSDRTYTCQVTYQGHTFEDSTKKCAPVAHVVANHQVEEQLEWLSQRANALLANGMDLKDNQLVVPADGLYLVYSQVLFKGQGCPDYVLLTHTVSRFAISYQEKVNLLSAVKSPCPKDTPEGAELKPWYEPIYLGGVFQLEKGDQLSAEVNLPKYLNFRESGQVYFGVIALPVAHVVANHQVEEQLEWLSQRANALLANGMDLKDNQLVVPADGLYLVYSQVLFKGQGCPDYVLLTHTVSRFAISYQEKVNLLSAVKSPCPKDTPEGAELKPWYEPIYLGGVFQLEKGDQLSAEVNLPKYLNFRESGQVYFGVIALPVAHVVANHQVEEQLEWLSQRANALLANGMDLKDNQLVVPADGLYLVYSQVLFKGQGCPDYVLLTHTVSRFAISYQEKVNLLSAVKSPCPKDTPEGAELKPWYEPIYLGGVFQLEKGDQLSAEVNLPKYLNFRESGQVYFGVIAL
For B1, the “stoichiometry N” value in series [1] came to 2. In addition, in the series with mouse TNFR2-Fc [2], the EC50 is 0.053 nM. In the series with mouse TNFR2-Fc [3], this molecule came in with a Kd of 0.89 nM and a kon of 589000 M⁻¹ s⁻¹.

B2: EHD2-sc-mTNFR2 (ligand)
chain: PTVKILQSSCDGGGHFPPTIQLLCLVSGYTPGTINITWLEDGQVMDVDLSTASTTQEGELASTQSELTLSQKHWLSDRTYTCQVTYQGHTFEDSTKKCAPVAHVVANHQVEEQLEWLSQRANALLANGMDLKDNQLVVPADGLYLVYSQVLFKGQGCPDYVLLTHTVSRFAISYQEKVNLLSAVKSPCPKDTPEGAELKPWYEPIYLGGVFQLEKGDQLSAEVNLPKYLNFRESGQVYFGVIALPVAHVVANHQVEEQLEWLSQRANALLANGMDLKDNQLVVPADGLYLVYSQVLFKGQGCPDYVLLTHTVSRFAISYQEKVNLLSAVKSPCPKDTPEGAELKPWYEPIYLGGVFQLEKGDQLSAEVNLPKYLNFRESGQVYFGVIALPVAHVVANHQVEEQLEWLSQRANALLANGMDLKDNQLVVPADGLYLVYSQVLFKGQGCPDYVLLTHTVSRFAISYQEKVNLLSAVKSPCPKDTPEGAELKPWYEPIYLGGVFQLEKGDQLSAEVNLPKYLNFRESGQVYFGVIAL
Regarding B2, in series [1], the “stoichiometry N” value was determined as 2. The EC50 with mouse TNFR2-Fc [2] was found to be 0.031 nM. In the series with mouse TNFR2-Fc [3], this molecule showed a Kd of 0.12 nM and a kon of 1.2e+06 M⁻¹ s⁻¹.

B3: soluble recombinant mouse TNF (ligand, UniProt P06804 80-235, looked up)
chain: LRSSSQNSSDKPVAHVVANHQVEEQLEWLSQRANALLANGMDLKDNQLVVPADGLYLVYSQVLFKGQGCPDYVLLTHTVSRFAISYQEKVNLLSAVKSPCPKDTPEGAELKPWYEPIYLGGVFQLEKGDQLSAEVNLPKYLDFAESGQVYFGVIAL
notes: soluble recombinant mouse tumor necrosis factor (TNF), wild type; Positive control; also called sTNF; wild-type soluble TNF
With B3, the binding result in the series with mouse TNFR1-Fc is on record as “binds”.

Values taken from PMC6930692, “Superior Treg-Expanding Properties of a Novel Dual-Acting Cytokine Fusion Protein” (Frontiers in Pharmacology, 2019).
